Test results reported in patent US20190322748A1 (Hoffmann-La Roche, published 2019).
Where two headings read alike, the source gives them in different places.

B1: 1+1 PD1TIM3_0168 (based on chimeric PD1-0103 / Tim3-0018) (bispecific antibody, human IgG1, kappa, L234A L235A)
heavy 1: not shown
heavy 2: QVTLKESGPGILQPSQTLSLTCSFSGFSLSTSGMSVGWIRQPSGKGLEWLAHIWLNDDVFFNPALKRRLTISKDTSNNQVFLQIASVVTADTATYYCVRANGYLYALDYWGQGISVTVSSASTKGPSVFPLAPSSKSTSGGTAALGCLVEDYFPEPVTVSWNSGALTSGVHTFPAVLQSSGLYSLSSVVTVPSSSLGTQTYICNVNHKPSNTKVDEKVEPKSCDKTHTCPPCPAPEAAGGPSVFLFPPKPKDTLMISRTPEVTCVVVDVSHEDPEVKFNWYVDGVEVHNAKTKPREEQYNSTYRVVSVLTVLHQDWLNGKEYKCKVSNKALGAPIEKTISKAKGQPREPQVCTLPPSRDELTKNQVSLSCAVKGFYPSDIAVEWESNGQPENNYKTTPPVLDSDGSFFLVSKLTVDKSRWQQGNVFSCSVMHEALHNRFTQKSLSLSPGK
light 1: EVILVESGGGLVKPGGSLKLSCAASGFSFSSYTMSWVRQTPEKRLDWVATISGGGRDIYYPDSVKGRFTISRDNAKNTLYLEMSSLMSEDTALYYCVLLTGRVYFALDSWGQGTSVTVSSASVAAPSVFIFPPSDEQLKSGTASVVCLLNNFYPREAKVQWKVDNALQSGNSQESVTEQDSKDSTYSLSSTLTLSKADYEKHKVYACEVTHQGLSSPVTKSFNRGEC
light 2: QIVLTQSPAIMSASPGQKVTITCSASSSVNYTQWYQQKLGSSPKLWIYDAFKLAPGVPARFSGSGTGTSYSLTISSMEAEDAASYFCHQWSSYPWTFGGGTKLEIKRTVAAPSVFIFPPSDRKLKSGTASVVCLLNNFYPREAKVQWKVDNALQSGNSQESVTEQDSKDSTYSLSSTLTLSKADYEKHKVYACEVTHQGLSSPVTKSFNRGEC
notes: 1+1 CrossMAb Vh-VL: HC1/LC1 form the crossed PD1 arm, HC2/LC2 the TIM3 arm; knobs into holes
B2: 2+2 PD1TIM3_0359 (chimeric PD1-0103 / Tim3-0018) (bispecific antibody, human IgG1, kappa, L234A L235A)
heavy: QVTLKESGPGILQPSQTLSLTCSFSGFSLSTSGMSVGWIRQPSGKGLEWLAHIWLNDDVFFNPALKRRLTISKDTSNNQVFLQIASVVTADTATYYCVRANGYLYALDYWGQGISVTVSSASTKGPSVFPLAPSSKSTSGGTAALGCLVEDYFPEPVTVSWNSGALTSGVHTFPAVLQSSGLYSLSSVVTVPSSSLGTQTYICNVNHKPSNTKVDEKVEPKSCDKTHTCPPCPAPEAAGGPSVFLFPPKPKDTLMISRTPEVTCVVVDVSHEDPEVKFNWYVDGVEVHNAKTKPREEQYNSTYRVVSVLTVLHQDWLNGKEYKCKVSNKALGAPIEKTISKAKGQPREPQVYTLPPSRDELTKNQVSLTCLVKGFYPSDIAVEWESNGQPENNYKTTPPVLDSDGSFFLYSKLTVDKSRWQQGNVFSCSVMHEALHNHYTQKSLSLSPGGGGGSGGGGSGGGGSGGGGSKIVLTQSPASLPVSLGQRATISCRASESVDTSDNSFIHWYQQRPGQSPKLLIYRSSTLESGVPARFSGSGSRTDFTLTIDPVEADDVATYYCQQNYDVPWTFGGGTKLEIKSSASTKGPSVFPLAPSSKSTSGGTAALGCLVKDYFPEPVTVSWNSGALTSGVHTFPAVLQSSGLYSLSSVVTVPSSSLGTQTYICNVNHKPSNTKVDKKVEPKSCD
light 1: B1 light 2
light 2: B1 light 1
notes: 2+2 CrossMAb: TIM3 IgG with a crossed PD1 Fab fused by (G4S)4 to the C-terminus of each heavy chain; also called PD1TIM3-0359 (2 + 2)
B3: 1+1 PD1TIM3_0389 (based on chimeric PD1-0103 / Tim3-0028) (bispecific antibody, human IgG1, kappa, L234A L235A)
heavy 1: not shown
heavy 2: EVQLQQSVAELVRPGASVKLSCTASGFNIKTTYMHWVKQRPEQGLEWIGRIDPADDNTKYAPKFQGKATITADTSSNTAYLQLSSLTSEDAAIYYCVRDFGYVAWFAYWGQGTLVTFSAASTKGPSVFPLAPSSKSTSGGTAALGCLVEDYFPEPVTVSWNSGALTSGVHTFPAVLQSSGLYSLSSVVTVPSSSLGTQTYICNVNHKPSNTKVDEKVEPKSCDKTHTCPPCPAPEAAGGPSVFLFPPKPKDTLMISRTPEVTCVVVDVSHEDPEVKFNWYVDGVEVHNAKTKPREEQYNSTYRVVSVLTVLHQDWLNGKEYKCKVSNKALGAPIEKTISKAKGQPREPQVCTLPPSRDELTKNQVSLSCAVKGFYPSDIAVEWESNGQPENNYKTTPPVLDSDGSFFLVSKLTVDKSRWQQGNVFSCSVMHEALHNRFTQKSLSLSPGK
light 1: B1 light 1
light 2: NIVMTPTPKFLPVSSGDRVTMTCRASQSVDNYVAWYQQKPGQSPKLLIYYASNRYIGVPDRFTGSGSGTDFTFTISSVQVEDLAVYFCQQHYSSPYTFGSGTKLEIKRTVAAPSVFIFPPSDRKLKSGTASVVCLLNNFYPREAKVQWKVDNALQSGNSQESVTEQDSKDSTYSLSSTLTLSKADYEKHKVYACEVTHQGLSSPVTKSFNRGEC
notes: 1+1 CrossMAb Vh-VL: HC1/LC1 form the crossed PD1 arm, HC2/LC2 the TIM3 arm; knobs into holes; also called PD1TIM3-0389 (0357); Bispec AB 0389 (1+1)
B4: 1+1 PD1TIM3_0476 (based on humanized PD1-0103_0312 / Tim3-0438) (bispecific antibody, human IgG1, kappa, L234A L235A)
heavy 1: not shown
heavy 2: EVQLVESGGGLVQPGGSLRLSCAASGFNIKTTYMHWVRQAPGKGLEWVGRIDPADDNTKYAPKFQGKATISADTSKNTAYLQMNSLRAEDTAVYYCVRDFGYVAWFAYWGQGTLVTVSSASTKGPSVFPLAPSSKSTSGGTAALGCLVEDYFPEPVTVSWNSGALTSGVHTFPAVLQSSGLYSLSSVVTVPSSSLGTQTYICNVNHKPSNTKVDEKVEPKSCDKTHTCPPCPAPEAAGGPSVFLFPPKPKDTLMISRTPEVTCVVVDVSHEDPEVKFNWYVDGVEVHNAKTKPREEQYNSTYRVVSVLTVLHQDWLNGKEYKCKVSNKALGAPIEKTISKAKGQPREPQVCTLPPSRDELTKNQVSLSCAVKGFYPSDIAVEWESNGQPENNYKTTPPVLDSDGSFFLVSKLTVDKSRWQQGNVFSCSVMHEALHNHYTQKSLSLSPGK
light 1: EVQLLESGGGLVQPGGSLRLSCAASGFSFSSYTMSWVRQAPGKGLEWVATISGGGRDIYYPDSVKGRFTISRDNSKNTLYLQMNSLRAEDTAVYYCVLLTGRVYFALDSWGQGTLVTVSSASVAAPSVFIFPPSDEQLKSGTASVVCLLNNFYPREAKVQWKVDNALQSGNSQESVTEQDSKDSTYSLSSTLTLSKADYEKHKVYACEVTHQGLSSPVTKSFNRGEC
light 2: DIVMTQSPLSLPVTPGEPASISCRASQSVDNYVAWYLQKPGQSPQLLIYYASNRYIGVPDRFSGSGSGTDFTLKISRVEAEDVGVYYCQQHYSSPYTFGQGTKVEIKRTVAAPSVFIFPPSDRKLKSGTASVVCLLNNFYPREAKVQWKVDNALQSGNSQESVTEQDSKDSTYSLSSTLTLSKADYEKHKVYACEVTHQGLSSPVTKSFNRGEC
notes: as for B1
B5: 1+1 PD1TIM3_0477 (based on humanized PD1-0103_0312 / Tim3-0434) (bispecific antibody, human IgG1, kappa, L234A L235A)
heavy 1: not shown
heavy 2: QITLKESGPTLVKPTQTLTLTCTFSGFSLSTSGMSVGWIRQPPGKGLEWLAHIWLNDDVFFNPALKSRLTITKDTSKNQVVLTMTNMDPVDTATYYCVRANGYLYALDYWGQGTLVTVSSASTKGPSVFPLAPSSKSTSGGTAALGCLVEDYFPEPVTVSWNSGALTSGVHTFPAVLQSSGLYSLSSVVTVPSSSLGTQTYICNVNHKPSNTKVDEKVEPKSCDKTHTCPPCPAPEAAGGPSVFLFPPKPKDTLMISRTPEVTCVVVDVSHEDPEVKFNWYVDGVEVHNAKTKPREEQYNSTYRVVSVLTVLHQDWLNGKEYKCKVSNKALGAPIEKTISKAKGQPREPQVCTLPPSRDELTKNQVSLSCAVKGFYPSDIAVEWESNGQPENNYKTTPPVLDSDGSFFLVSKLTVDKSRWQQGNVFSCSVMHEALHNHYTQKSLSLSPGK
light 1: B4 light 1
light 2: DIQLTQSPSFLSASVGDRVTITCSASSSVSYTQWYQQKPGKAPKLWIYDAFKLAPGVPSRFSGSGSGTEFTLTISSLQPEDFATYFCHQWSSYPWTFGQGTKLEIKRTVAAPSVFIFPPSDRKLKSGTASVVCLLNNFYPREAKVQWKVDNALQSGNSQESVTEQDSKDSTYSLSSTLTLSKADYEKHKVYACEVTHQGLSSPVTKSFNRGEC
notes: 1+1 CrossMAb Vh-VL: HC1/LC1 form the crossed PD1 arm, HC2/LC2 the TIM3 arm; knobs into holes; also called PD1TIM3_477
B6: Chimeric TIM3-0016 variant (0018) (antibody, human IgG1, V domains shown)
VH: QVTLKESGPGILQPSQTLSLTCSFSGFSLSTSGMSVGWIRQPSGKGLEWLAHIWLNDDVFFNPALKRRLTISKDTSNNQVFLQIASVVTADTATYYCVRANGYLYALDYWGQGISVTVSS
VL: QIVLTQSPAIMSASPGQKVTITCSASSSVNYTQWYQQKLGSSPKLWIYDAFKLAPGVPARFSGSGTGTSYSLTISSMEAEDAASYFCHQWSSYPWTFGGGTKLEIK
notes: also called Chimeric TIM3-0018

Assays:
[1] = molecular target: T1, full-length human PD1 on cells (CHO-K1 stably transfected with plasmid 15311_hPD1-fl_pUC_Neo) (human, UniProt Q15116 25-288); assay: cell-based or functional assay
[2] = molecular target: T2, biotinylated PD1-ECD-AviHis (human, UniProt Q15116 25-170, biotinylated, site not stated); assay: ELISA on coated biotinylated PD1-ECD-AviHis
T2 construct: also called huPD1; hu PD1

[3] = molecular target: T3, biotinylated TIM3-ECD-AviHis (human, UniProt Q8TDQ0 22-202, biotinylated, site not stated); assay: ELISA on coated biotinylated TIM3-ECD-AviHis
T3 construct: also called huTIM3; Hu TIM3

human PD1-ECD = molecular target: T4, human PD1-ECD (human, UniProt Q15116 25-170); assay: SPR Biacore T200, Ab captured on anti-human Fc IgG, hu PD1-ECD in solution, 25 C
T4 construct: SPR analyte; also called hu PD1-ECD

monomeric human Tim3-ECD = molecular target: T5, monomeric human Tim3-ECD (human, UniProt Q8TDQ0 22-202); assay: SPR Biacore T200, Ab captured on anti-human Fab IgG, hu Tim3-ECD in solution, 25 C
T5 construct: SPR analyte; also called huTim3; hu Tim3-ECD

[4] = molecular target: T6, PD1-SNAP (on transiently transfected HEK293 cells) (human, SNAP-tag labelled with SNAP-Lumi4-Tb); assay: cell-based TR-FRET on SNAP-tagged PD1 / CLIP-tagged TIM3 HEK293 cells, 1 h at 4 C; half-maximal FRET, i.e. simultaneous binding of both receptors, not of one arm alone
T6 construct: also called SNAP-tagged PD1

[5] = molecular target: T7, Tim3-CLIP (on transiently transfected HEK293 cells) (human, CLIP-tag labelled with Clip-Red); assay: as above
T7 construct: The plasmid encodes residues 1-202 including the signal peptide; also called CLIP-tagged TIM3

[6] = molecular target: T6, PD1-SNAP (on transiently transfected …); assay: cell-based TR-FRET (Tag-lite) on HEK293 cells co-transfected with PD1-SNAP (Lumi4-Tb) and Tim3-CLIP (Clip-Red), 1 h at 4 C; signal needs both receptors bound at once by one antibody; mean +/- SD, n=3
[7] = molecular target: T7, Tim3-CLIP (on transiently transfected …); assay: as above
[8] = molecular target: T1, full-length human PD1 on cells (CHO-K1 …); assay: cell-based or functional assay; remark: listed apart in the source
[9] = molecular target: T1, full-length human PD1 on cells (CHO-K1 …); assay: cell-based or functional assay; remark: listed apart in the source
[10] = molecular target: T7, Tim3-CLIP (on transiently transfected …); assay: cell-based TR-FRET (Tag-lite) on HEK293 cells co-transfected with PD1-SNAP (Lumi4-Tb) and Tim3-CLIP (Clip-Red), 1 h at 4 C; signal needs both receptors bound at once by one antibody; mean +/- SD, n=3; remark: listed apart in the source
[11] = molecular target: T8, full-length human Tim3 on cells (CHO-K1 stably transfected with plasmid 15312_hTIM3-fl_pUC_Neo) (human, UniProt Q8TDQ0 22-301); assay: cell-based or functional assay
[12] = molecular target: T8, full-length human Tim3 on cells (CHO-K1 …); assay: cell-based or functional assay; remark: listed apart in the source

Row | Binder | EC50 [2] | EC50 [3] | Kd (human PD1-ECD) | Kd (monomeric human Tim3-ECD) | binding result [6] | binding result [7] | binding result [10] | also measured
1 | B1 | 0.11 nM | 0.41 nM | 1.2 nM | 10.3 nM |  |  |  | EC50 of IFN-gamma secretion in MLR, donors D2 + D6 [1]: 4.3 nM; EC50 (read off the curve) [4]: ~0.7 nM; EC50 (read off the curve) [5]: ~0.7 nM
2 | B2 | 0.09 nM | 0.11 nM | 1.8 nM | 2.3 nM | binds | binds |  | 
3 | B3 | 0.13 nM |  | 1.3 nM | 245 nM | binds | binds |  | EC50 of IFN-gamma secretion in MLR, donors D2 + D6 [8]: 2.8 nM; EC50 of IFN-gamma secretion in MLR, donors D1 + D3 [9]: 2 nM; EC50 of IFN-gamma secretion in MLR, donors D2 + D4 [9]: 1.9 nM
4 | B4 |  |  |  | 332 nM |  |  | binds | 
5 | B5 |  |  |  | 12 nM |  |  | binds | 
6 | B6 |  | 0.15 nM |  |  |  |  |  | EC50 of IFN-g secretion/release in MLR, donors D1 + D5, with 0.1 µg/ml anti-PD1 mAb [11]: 4.2 nM; EC50 of IFN-g secretion/release in MLR, donors D2 + D3, with 0.1 µg/ml anti-PD1 mAb [11]: 3.1 nM; EC50 of IFN-gamma secretion in MLR, donors D2 + D6 [12]: > 274 nM; binding result [2]: no binding
